The target in assay [1] is T1, mouse ICOS-hFc (homodimeric, bivalent) (mouse; human, UniProt Q9WVS0 21-142).
T1 construct: also called mICOS-hFc; mouse ICOS-Fc; not shown: human IgG1 Fc (IgG1 backbone)
T1 sequence: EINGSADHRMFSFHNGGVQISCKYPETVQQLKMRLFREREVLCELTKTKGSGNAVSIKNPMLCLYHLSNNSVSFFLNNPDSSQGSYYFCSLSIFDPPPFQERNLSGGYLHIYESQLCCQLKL
The assay is described as follows: BLI. The protocol: (§1) Cross-reactivity measurements were conducted using BLI technology with antibody panels being screened for binding to human, mouse, and cynomolgus ICOS-Fc fusions (homodimeric, bivalent forms).

Assay [2] addresses T2, mouse ICOS (full length, on cells) (mouse, UniProt Q9WVS0 21-200).
T2 construct: also called CHO-mICOS; mouse ICOS+ CHO cells
T2 sequence: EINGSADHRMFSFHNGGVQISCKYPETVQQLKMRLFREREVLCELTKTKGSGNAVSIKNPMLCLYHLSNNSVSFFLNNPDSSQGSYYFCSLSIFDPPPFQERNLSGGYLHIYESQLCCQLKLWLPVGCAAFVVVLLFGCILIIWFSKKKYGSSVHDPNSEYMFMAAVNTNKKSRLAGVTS
In words: flow cytometry on ICOS+ CHO cells. The source says:
To assess specificity, binding to human ICOS+ CHO cells and mouse ICOS+ CHO cells was individually analyzed by flow cytometry. As a control to screen out pan-reactive antibodies, staining on CHO cells lacking ICOS receptor expression was also examined. All of the selected antibodies bound to human and mouse ICOS+ CHO cells, and not to CHO cells lacking ICOS expression.

Assay [3] concerns the target T3, human ICOS-hFc (homodimeric, bivalent) (human, UniProt Q9Y6W8 21-141).
T3 construct: also called hICOS-Fc; hICOS-hFc; not shown: human IgG1 Fc (IgG1 backbone)
T3 sequence: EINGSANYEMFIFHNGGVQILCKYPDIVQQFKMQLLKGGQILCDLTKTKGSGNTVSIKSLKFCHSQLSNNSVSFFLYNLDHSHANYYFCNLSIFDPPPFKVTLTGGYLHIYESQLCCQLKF
In words: BLI, bivalent binding to homodimeric ICOS-Fc. The protocol: as §1

The target in assay [4] is T4, cynomolgus ICOS-Fc (homodimeric, bivalent) (cynomolgus monkey, UniProt Q9Y6W8 21-140 (human entry)).
T4 construct: also called cynoICOS-Fc; cyno ICOS-Fc; not shown: human IgG1 Fc (IgG1 backbone)
T4 chain: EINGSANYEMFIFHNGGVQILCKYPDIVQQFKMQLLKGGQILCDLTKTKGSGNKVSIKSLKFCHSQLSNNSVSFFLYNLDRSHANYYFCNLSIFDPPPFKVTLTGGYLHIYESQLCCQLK
The assay is described as follows: BLI, bivalent binding to homodimeric ICOS-Fc. The method, then: as §1

In assay [5] the target is T5, human CD28 Fc fusion (dimeric) (human, UniProt P10747 19-152).
T5 construct: not shown: Fc part not described
T5 sequence (P10747 19-152): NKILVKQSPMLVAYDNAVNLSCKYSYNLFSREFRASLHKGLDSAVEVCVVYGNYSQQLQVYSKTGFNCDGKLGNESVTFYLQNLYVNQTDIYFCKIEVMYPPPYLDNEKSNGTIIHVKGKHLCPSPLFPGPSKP
The assay is described as follows: binding to dimeric Fc fusions of CD28 family members. The method, then:
(§2) To further assess the specificity of the anti-ICOS antibodies, the antibodies were screened for binding to additional members of the CD28 protein family (CD28, BTLA, PD-1 and CTLA-4). […] Specifically, binding to Fc fusions (of CD28, BTLA, PD-1 and CTLA-4) in dimeric forms was evaluated, and no binding was observed. For a subset of the CD28 family members, mouse or human protein was over-expressed on the surface of HEK293 and CHOK1 cells. No binding of antibody above background relative to untransduced parental cells was observed.

Assay [6] concerns the target T6, mouse CD28 Fc fusion (dimeric) (mouse, UniProt P31041 20-150).
T6 construct: not shown: Fc part not described
T6 sequence (looked up): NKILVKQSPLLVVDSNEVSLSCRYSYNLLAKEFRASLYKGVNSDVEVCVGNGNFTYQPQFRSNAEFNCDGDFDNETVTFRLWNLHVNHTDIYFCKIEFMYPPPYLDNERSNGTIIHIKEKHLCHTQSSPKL
Described as above. The protocol: as §2

Assay [7] concerns the target T7, human BTLA Fc fusion (dimeric) (human, UniProt Q7Z6A9 31-157).
T7 construct: not shown: Fc part not described
T7 sequence (looked up): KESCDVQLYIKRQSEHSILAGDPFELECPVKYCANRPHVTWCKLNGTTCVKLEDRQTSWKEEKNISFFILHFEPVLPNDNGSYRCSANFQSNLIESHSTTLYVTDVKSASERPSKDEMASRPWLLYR
The assay is described as above. The protocol: as §2

Assay [8] concerns the target T8, mouse BTLA Fc fusion (dimeric) (mouse, UniProt Q7TSA3 30-183).
T8 construct: not shown: Fc part not described
T8 sequence (looked up): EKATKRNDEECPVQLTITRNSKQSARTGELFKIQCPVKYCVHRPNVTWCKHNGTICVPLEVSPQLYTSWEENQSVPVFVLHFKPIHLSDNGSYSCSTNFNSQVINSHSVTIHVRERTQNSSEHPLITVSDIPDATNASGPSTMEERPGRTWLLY
The description is as above. The protocol: as §2

The target in assay [9] is T9, human PD-1 Fc fusion (dimeric) (human, UniProt Q15116 25-167).
T9 construct: not shown: Fc part not described
T9 sequence (Q15116 25-167): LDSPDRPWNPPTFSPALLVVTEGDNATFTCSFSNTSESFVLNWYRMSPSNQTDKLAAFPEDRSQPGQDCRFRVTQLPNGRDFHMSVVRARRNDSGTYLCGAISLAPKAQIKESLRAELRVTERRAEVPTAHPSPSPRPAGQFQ
The description is as above. The protocol:
as §2

Assay [10] has as its target T10, mouse PD-1 Fc fusion (dimeric) (mouse, UniProt Q02242 25-167).
T10 construct: not shown: Fc part not described
T10 sequence (looked up): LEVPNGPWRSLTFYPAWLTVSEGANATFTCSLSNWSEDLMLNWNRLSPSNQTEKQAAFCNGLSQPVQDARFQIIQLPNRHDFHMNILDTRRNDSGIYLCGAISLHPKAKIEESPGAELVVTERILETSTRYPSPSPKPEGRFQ
The assay is described as above. The protocol:
as §2

Assay [11] has as its target T11, human CTLA-4 Fc fusion (dimeric) (human, UniProt P16410 37-162).
T11 construct: not shown: Fc part not described
T11 sequence (looked up): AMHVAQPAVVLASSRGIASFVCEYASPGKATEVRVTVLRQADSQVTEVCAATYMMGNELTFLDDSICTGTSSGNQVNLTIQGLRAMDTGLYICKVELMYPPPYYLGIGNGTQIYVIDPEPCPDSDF
Described as above. The method, then: as §2

In assay [12] the target is T12, mouse CTLA-4 Fc fusion (dimeric) (mouse, UniProt P09793 36-162).
T12 construct: not shown: Fc part not described
Described as above. The method, then: as §2

Assay [13] addresses T13, monovalent, heterodimeric human ICOS-Fc (human).
T13 construct: Make-up of the heterodimer is not described; also called Monomeric hICOS; monomeric form of human ICOS; not shown: The human IgG1 Fc fused to ICOS, and the partner Fc chain of the heterodimer
T13 chain: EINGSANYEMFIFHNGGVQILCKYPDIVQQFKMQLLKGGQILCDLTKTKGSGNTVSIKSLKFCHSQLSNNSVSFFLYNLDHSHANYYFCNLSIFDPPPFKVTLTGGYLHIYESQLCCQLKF
In words: BLI (Octet RED96), IgG vs monovalent heterodimeric ICOS-Fc. The method, then: (§3) Affinity measurements were conducted using Bio-Layer Interferometry (BLI) technology (ForteBio Octet® RED96). The monovalent affinities were generated with IgG versions of the antibodies with monovalent, heterodimeric forms of the ICOS receptor. The avid affinities were generated using full-length IgGs against homodimeric forms of the ICOS receptor.

Assay [14] concerns the target T3, human ICOS-hFc (homodimeric, bivalent). In words: BLI (Octet RED96), full-length IgG vs homodimeric ICOS-Fc (avid). The method, then:
as §3

B1: 7F12 (antibody, V domains shown)
VH: EVQLVESGGGLVKPGGSLTLSCAASGFTFSDYWMDWVRQGPGKGLEWVGNIDEDGSTTYYAPFVKGRFTISRDNAKKTLYLQMNSVKSEDTATYYCTRWGRYAFDSWGQGTLVTVSS
VL: DIVMTQSPSSLAVSPGDKVTINCKSSQSLLSGNYNYLAWYQQKTGQAPKLLIFYASTRHTGVPDRFMGSGSGTDFSLTINSFQTEDLGDYYCQHHYSTPPTFGPGTKLEIK
notes: Armenian hamster monoclonal tested as IgG; also called hamster anti-ICOS 7F12
With B1, the binding result is on record as “binds” in assay [1]; “binds” in assay [2]; “no binding” in assay [5]; “no binding” in [6]; “no binding” in assay [7]; “no binding” in [8]. Moreover, the binding result in assay [9], in assay [10], in assay [11] and in [12] was “no binding” each time. Besides, the Kd in assay [3] was 0.0342 nM; in [4] it was below 0.001 nM; in assay [13], 13.2 nM; in assay [14], 0.0342 nM. In addition, the koff in [3] is 2.3e-05 s⁻¹; in assay [4], below 1e-07 s⁻¹; in [13] it was 0.00175 s⁻¹; in assay [14], 2.3e-05 s⁻¹. Further, the kon in assay [3] is 674000 M⁻¹ s⁻¹; in assay [4], 585000 M⁻¹ s⁻¹; in assay [13] it was 133000 M⁻¹ s⁻¹; in assay [14], 674000 M⁻¹ s⁻¹.

B2: 37A10 (antibody, V domains shown)
VH: EVQLVESGGGLVKPGGSLKLSCAASGFTFSDYWMDWVRQAPGKGLEWVGNIDEDGSITEYSPFVKGRFTISRDNVKNTLYLQMNSVKSEDTATYYCTRWGRFGFDSWGQGTLVTVSS
VL: DIVMTQSPSSLAVSAGDRVTINCKSSQSLLSGSFNYLTWYQQKTGQAPKLLIFYASTRHTGVPDRFMGSGSGTDFTLTINSFQTEDLGDYYCHHHYNAPPTFGPGTKLELR
notes: Armenian hamster monoclonal tested as IgG; also called hamster anti-ICOS 37A10
With B2, the binding result in assay [1] is recorded as “binds”; in [2] it was “binds”; in assay [5] it was “no binding”; in [6], “no binding”; in [7], “no binding”; in [8] it was “no binding”. The binding result in assay [9], in assay [10], in assay [11] and in [12] was “no binding” in each case. The Kd is below 0.001 nM in [3], below 0.001 nM in [4], 3.18 nM in [13] and 0.0342 nM in [14]. For the same molecule, the koff in assay [3] is below 1e-07 s⁻¹; in assay [4] it was below 1e-07 s⁻¹; in assay [13] it was 0.000479 s⁻¹; in assay [14] it was 2.3e-05 s⁻¹. Further, the kon in assay [3] came to 625000 M⁻¹ s⁻¹; in assay [4] it was 712000 M⁻¹ s⁻¹; in assay [13], 151000 M⁻¹ s⁻¹; in assay [14], 674000 M⁻¹ s⁻¹.

B3: 16G10 (antibody, V domains shown)
VH: EVQLVESGGGLVKPGGSLKLSCAASGFTFSDYWMDWVRQAPGKGLEWVGNIDHDGNIINFAPSVKGRFTISRDNAKNTLYLQMNSVKSEDTATYYCARWGHYAFDSWGQGTLVTVSS
VL: DIVMTQSPSSLAVSAGDKVTINCKSSQSLLSSGYNYLIWYQQKTGQAPKLLIFYASTRHTGVPDRFIGSGSGTDFTLTITSFQTEDLGDYYCQHHYSSPPTFGPGTKLEIK
notes: Armenian hamster monoclonal tested as IgG; also called hamster anti-ICOS 16G10
Turning to B3, the binding result is recorded as “binds” in assay [1]; “binds” in [2]; “no binding” in assay [5]; “no binding” in assay [6]; “no binding” in [7]; “no binding” in assay [8]. Moreover, the binding result in assay [9], in [10], in assay [11] and in assay [12] was “no binding” throughout. For the same molecule, the Kd was below 0.001 nM in [3], below 0.001 nM in assay [4], 4.37 nM in assay [13] and below 0.001 nM in [14]. The koff in assay [3] is below 1e-07 s⁻¹; in assay [4], below 1e-07 s⁻¹; in [13], 0.000712 s⁻¹; in assay [14] it was below 1e-07 s⁻¹. Moreover, the kon in assay [3] amounted to 626000 M⁻¹ s⁻¹; in assay [4], 647000 M⁻¹ s⁻¹; in [13], 163000 M⁻¹ s⁻¹; in assay [14], 1.01e+06 M⁻¹ s⁻¹.

B4: 36E10 (antibody, V domains shown)
VH: EVQLVESGGGLVKPGGSLKLSCAASGFTFSDYWMDWVRQAPGKGLEWVGNIDEDGSITEYSPFVKGRFTISRDNVKNILYLQMNSVKSEDTATYYCTRWGRFAFDSWGQGTLVTVSS
VL: DIVMTQSPSSLAVSPGDRVTINCKSSQSLLSGSFHYLTWYQQKTGQAPKLLIFYASTRHTGVPDRFMGSGSGTDFTLTINSFQTEDLGDYYCHHHYNAPPTFGPGTKLELR
notes: Armenian hamster monoclonal tested as IgG; also called hamster anti-ICOS 36E10
On to B4, for which the binding result was “binds” in assay [1]; “binds” in [2]; “no binding” in assay [5]; “no binding” in assay [6]; “no binding” in [7]; “no binding” in [8]. In addition, the binding result in [9], in assay [10], in assay [11] and in assay [12] was “no binding” throughout. Moreover, the Kd is below 0.001 nM in assay [3], below 0.001 nM in assay [4], 1.59 nM in assay [13] and below 0.001 nM in [14]. For the same molecule, the koff in assay [3] was below 1e-07 s⁻¹; in assay [4] it was below 1e-07 s⁻¹; in assay [13] it was 0.000228 s⁻¹; in assay [14], below 1e-07 s⁻¹. Further, the kon in assay [3] stood at 617000 M⁻¹ s⁻¹; in assay [4], 697000 M⁻¹ s⁻¹; in [14], 626000 M⁻¹ s⁻¹.

The record behind these values is patent US20180371091A1 (JOUNCE THERAPEUTICS, published 2018).
